# B1: Tissue plasminogen activator (protein, UniProt P00750 36-562, looked up)
# Tissue-type plasminogen …: SYQVICRDEKTQMIYQQHQSWLRPVLRSNRVEYCWCNSGRAQCHSVPVKSCSEPRCFNGGTCQQALYFSDFVCQCPEGFAGKCCEIDTRATCYEDQGISYRGTWSTAESGAECTNWNSSALAQKPYSGRRPDAIRLGLGNHNYCRNPDRDSKPWCYVFKAGKYSSEFCSTPACSEGNSDCYFGNGSAYRGTHSLTESGASCLPWNSMILIGKVYTAQNPSAQALGLGKHNYCRNPDGDAKPWCHVLKNRRLTWEYCDVPSCSTCGLRQYSQPQFRIKGGLFADIASHPWQAAIFAKHRRSPGERFLCGGILISSCWILSAAHCFQERFPPHHLTVILGRTYRVVPGEEEQKFEVEKYIVHKEFDDDTYDNDIALLQLKSDSSRCAQESSVVRTVCLPPADLQLPDWTECELSGYGKHEALSPFYSERLKEAHVRLYPSSRCTSQHLLNRTVTDNMLCAGDTRSGGPQANLHDACQGDSGGPLVCLNDGRMTLVGIISWGLGCGQKDVPGVYTKVTNYLDWIRDNMRP
# notes: thrombolytic
# Tested on: thrombus
# Assay: Treatment of a thrombus in guinea pig inferior vena cava monitored by catheter fluorescence detection
# Assay type: in vivo
# Details: guinea pig IVC thrombus; tPA delivered through the catheter after optical agent 0.02 μmol/kg
# Description: A guinea pig (Harley, male) is anaesthetized. […] The vessel is allowed to recover for 10 mins. A 1 cm portion of the IVC is clamped and human thrombin (50 μL, 4 units) is injected into the vessel to promote thrombus formation. The lower clamp is opened and closed to allow partial blood flow to the segment. After 2-3 mins., the clips are removed. The thrombus is allowed to age in the animal for 30 mins. At this point, the optical agent is administered at a dose of 0.02 μmol/kg, via injection into the jugular vein. After 30 mins., a catheter with an optical fluorescence detector is inserted into the IVC and the thrombus visualized by detecting the fluorescence signal emitted by the fibrin-optical agent complexes on the thrombus. […] TNKASE™ (Tenecteplase) is a commercially approved tissue plasminogen activator (tPA) produced by recombinant DNA technology and sold by Genetech. The drug is administered intravenously at a dose of 30-50 mg, depending on patient weight.
molecule,measurement,value
B1,Optical fluorescence signal of fibrin-optical agent complexes on thrombus (clot dissolution and lysis),optical fluorescence signal decreases

# — patent US20060148683A1, “Detection and treatment of intravascular lesions” (priority 2001, published 2006)
